What was measured:
Assay in all cases: NMR
Details in all cases: 25 °C, not stated (10 mM citrate-phosphate buffer; no added salt mentioned), folded, free protein, 1 mM
[1] = biological target: Asp14 (UniProt position 35, QKLIEDVNASF)
[2] = biological target: Asp33 (UniProt position 54, NVPPADKYKTF)
[3] = biological target: Asp52 (UniProt position 73, KRNLADAVSKA)
[4] = biological target: Asp65 (UniProt position 86, LVPKLDEVYNA)
[5] = biological target: Asp76 (UniProt position 97, AYNAADHAAPE)
[6] = biological target: Asp82 (UniProt position 103, HAAPEDKYEAF)
[7] = biological target: Glu103 (UniProt position 124, IAGTPEVHAVK)
[8] = biological target: Glu13 (UniProt position 34, EQKLIEDVNAS)
[9] = biological target: Glu39 (UniProt position 60, KYKTFEAAFTV)
[10] = biological target: Glu66 (UniProt position 87, VPKLDEVYNAA)
[11] = biological target: Glu7 (UniProt position 28, GKATTEEQKLI)
[12] = biological target: Glu8 (UniProt position 29, KATTEEQKLIE)
[13] = biological target: Glu81 (UniProt position 102, DHAAPEDKYEA)
[14] = biological target: Glu85 (UniProt position 106, PEDKYEAFVLH)
[15] = biological target: Glu93 (UniProt position 114, VLHFSEALRII)
[16] = biological target: His105 (UniProt position 126, GTPEVHAVKPG)
[17] = biological target: His77 (UniProt position 98, YNAADHAAPED)
[18] = biological target: His90 (UniProt position 111, EAFVLHFSEAL)

Pollen allergen Phl p 6 (Phleum pratense (timothy grass))
pKa [1]: 3.50
pKa [2]: 3.38
pKa [3]: 2.4
pKa [4]: 4.80
pKa [5]: 3.50
pKa [6]: 3.06
pKa [7]: 3.65
pKa [8]: 3.80
pKa [9]: 4.84
pKa [10]: 4.06
pKa [11]: 4.25
pKa [12]: 3.19
pKa [13]: 3.52
pKa [14]: 4.59
pKa [15]: 4.21
pKa [16]: 6.5
pKa [17]: 7.4
pKa [18]: 7.3

From publication PMC6994067
